In PMC12067093 (2025):
Each block holds one binder with its values, some of them ahead of it.

Biological target: BRD4 BD2 (Homo sapiens, UniProt O60885)
Assay: SPR

Kd: 20 nM
B1: TRIM25 PRYSPRY (protein)
chain: KVLETFLAKSRPELLEYYIKVILDYNTAHNKVALSECYTVASVAEMPQNYRPHPQRFTYCSQVLGLHCYKKGIHYWEVELQKNNFCGVGICYGSMNRQGPESRLGRNSASWCVEWFNTKISAWHNNVEKTLPSTKATRVGVLLNCDHGFVIFFAVADKVHLMYKFRVDFTEALYPAFWVFSAGATLSICSPK
modifications: TRIM25 covalently pre-labelled with heterobifunctional compound HB2

Kd: 15 nM
B2: TRIM25 PRYSPRY (protein)
chain: B1 chain
modifications: TRIM25 covalently pre-labelled with heterobifunctional compound HB1

Kd: 22.5 nM
B3: TRIM25 PRYSPRY (protein)
chain: B1 chain
modifications: TRIM25 covalently pre-labelled with heterobifunctional compound HB3
